For orientation: Kd means the concentration at which binding is half-saturated. Low values mean tighter binding, high ones weaker binding.

The labels stand for the following.
B1: SC57.11 (antibody, V domains shown)
VH: QVQLQQSGAELMKPGASVKISCKATGYTFSNYRIEWMKQRPGHGLEWIGEILPRTGNTNYNENFKGKATFTADTSSNTAYIQLSSLTSEDSAVYYCARDDGYYGRFAYWGQGTLVTVSA
VL: DIQMTQTTSSLSASLGDRVTISCRASQDISSYLNWYQQKPDGTVKLLIYYTSRLHSGVPSRFSGSGSGTDYSLTINNLEQEDIATYFCQQGNTLPPTFGGGTKLEIK
B2: SC57.46 (antibody, V domains shown)
VH: QVQLKESGPGLVAPSQSLSITCTVSGFSLTSYGVHWVRQPPGKGLEWLGIIWAGGTTNYNSALMSRLSIRKDNSKSQVFLKMNSLQTDDTAMYYCARDRGYDGYFDYAVDYWGQGTSVTVSS
VL: DIQMTQSPPSLSASVGETVTITCRTSENIYSYLTWYQQKQGKSPQLLVYNAKTLAEGVPSRFSGSGSGTQFSLKINSLQPEDFGSYYCQHHYGTPLTFGAGTKLELK
B3: SC57.5 (antibody, V domains shown)
VH: EVQLQQSGPELVKPGASVKISCKASGYSFTDYYLHWVKQSHVKSLEWIGRINPYNGATSYNQIFKDKASLTVDKSSSTAYMDLHSLTSEDSAVYYCARGGDYDFPWYWGQGTTLTVSP
VL: DIVMTQSHKFMSTSVGDRVSITCKASQDVYAAVAWYHQKPGQSPKLLIYWASTRHAGVPDRFTGSGSGTDYTLTISSVQAEDLALYYCQQHYRTPWTFGGGTKLEIK
B4: hSC57.5 (antibody, human IgG1, kappa, V domains shown)
VH: EVQLVQSGAEVKKPGESLKISCKGSGYSFTDYYLHWVRQMPGKGLEWMGRINPYNGATSYNQIFKDQVTISADKSISTAYLQWSSLKASDTAMYYCARGGDYDFPWYWGQGTTVTVSS
VL: DIQMTQSPSSLSASVGDRVTITCKASQDVYAAVAWYQQKPGKAPKLLIYWASTRHAGVPSRFSGSGSGTDFTLTISSLQPEDFATYYCQQHYRTPWTFGQGTKVEIKR

In this test the target is hMFI2-ECD-His (extracellular domain of human MFI2, residues G20-C709, with Histidine tag) (human) (UniProt P08582). Briefly: SPR (BIAcore 2000): antibody captured, monomeric MFI2-His flowed, 1:1 Langmuir fit; species not given, taken as hMFI2-His. A general note: SPR reads the build-up and loss of mass on a sensor chip optically.
hMFI2-ECD-His (extracellular domain of human MFI2, residues G20-C709, with Histidine tag) (human), sequence (P08582 20-709 limits assumed, form in doubt): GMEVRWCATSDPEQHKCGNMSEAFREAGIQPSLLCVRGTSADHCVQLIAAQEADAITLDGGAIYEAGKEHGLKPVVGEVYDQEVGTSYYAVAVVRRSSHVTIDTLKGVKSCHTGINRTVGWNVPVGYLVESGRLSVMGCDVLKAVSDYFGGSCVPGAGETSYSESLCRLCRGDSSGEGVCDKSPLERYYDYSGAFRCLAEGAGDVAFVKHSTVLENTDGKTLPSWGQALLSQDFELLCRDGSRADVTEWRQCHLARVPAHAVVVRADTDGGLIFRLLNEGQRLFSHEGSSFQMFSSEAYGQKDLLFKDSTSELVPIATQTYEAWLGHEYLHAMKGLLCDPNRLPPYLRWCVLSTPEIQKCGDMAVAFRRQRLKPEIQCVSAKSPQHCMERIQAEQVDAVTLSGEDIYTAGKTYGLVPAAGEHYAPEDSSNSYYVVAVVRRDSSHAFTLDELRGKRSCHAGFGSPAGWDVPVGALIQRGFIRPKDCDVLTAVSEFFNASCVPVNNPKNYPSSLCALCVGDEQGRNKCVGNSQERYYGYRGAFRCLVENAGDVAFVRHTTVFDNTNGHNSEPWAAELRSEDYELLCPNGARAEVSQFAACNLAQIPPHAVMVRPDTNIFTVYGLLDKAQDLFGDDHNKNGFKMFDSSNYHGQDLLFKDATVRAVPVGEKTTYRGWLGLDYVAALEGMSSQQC
Take B1: the Kd was determined as 3.2 nM.
Molecule B2 came in with a Kd of 4.5 nM.
To B3 belongs 1.1 nM; to B4, 4.4 nM.

Source of the values: patent publication US20170320960A1.
